In US20120077730A1:

Target: human C5a receptor (C5aR) (human) (UniProt P21730)
Experiment: cell-based or functional assay

Chain of UniProt P21730 (P21730 whole entry): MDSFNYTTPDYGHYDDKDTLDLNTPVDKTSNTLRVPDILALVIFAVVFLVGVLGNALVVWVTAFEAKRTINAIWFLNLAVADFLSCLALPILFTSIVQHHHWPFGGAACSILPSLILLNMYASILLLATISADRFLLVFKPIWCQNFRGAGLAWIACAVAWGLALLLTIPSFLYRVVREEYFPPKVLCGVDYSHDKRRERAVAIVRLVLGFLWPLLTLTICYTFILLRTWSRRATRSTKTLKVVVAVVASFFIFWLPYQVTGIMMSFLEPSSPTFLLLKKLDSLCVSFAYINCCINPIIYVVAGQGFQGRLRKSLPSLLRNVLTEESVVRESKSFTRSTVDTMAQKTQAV

Row | Substance | C5aR blocking activity relative to wt CHIPS1-121 (% of wt CHIPS1-121) | Chemotaxis IC50
1 | CHIPS variant clone 376 (ADC-1004; CHIPS ΔN/C format) (from UniProt A6QIG7 31-113) | > 25 | 0.5 µg/mL
2 | Wild-type (Wt) CHIPS1-121 (from UniProt A6QIG7 29-149) |  | 0.1 µg/mL
3 | CHIPS ΔN/C (CHIPS31-113) (from UniProt A6QIG7 59-141) |  | 0.5 µg/mL
